Test results as given in the supplement of paper PMC12042874.
± gives the uncertainty stated by the source.

Assay: amyloid nucleation score (Sup35N fusion, yeast selection) (log enrichment); library NNK3; higher = more nucleation; inactive = no reads after selection
Method in brief: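 DiMSum was used to calculate nucleation scores as log enrichment of output over input reads, centred on the mode score of non-aggregating sequences. Sequences with fewer than 100 input reads were not scored. Input and output came from Illumina sequencing of plasmid inserts in psi-negative yeast expressing peptides of 20 random codons fused to Sup35N, induced 24 hours with 100 μM copper sulfate and then grown 7 days at 30°C on medium lacking adenine and uracil.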

| Substance | amyloid nucleation score |
| --- | --- |
| RSKEMNVKASKNSMVHVSEV | inactive |
| SGKFTSGLIVRSASIGLYST | 0.747 ± 0.26 |
| ERVNVVR | inactive |
| GSRLSIQTFMTS | inactive |
| VPGMSAVCKMGLLLDVGVHE | inactive |
| RFVAHG | inactive |
| DRLHSCYCCTIVHRFYRNYD | inactive |
| LYFSNRTIKEYIVN | inactive |
| QDAMSTEVEGTF | inactive |
| SFLPTV | 0.93 ± 0.23 |
| IIYMMLYVKEGMSWTSLPDQ | inactive |
| QVCFQSWDASRSRYRHRLKR | 0.625 ± 0.21 |
| YTFRMYGLMDNLHCAPWF | inactive |
| GCARLAIMSKLPSCW | inactive |
| LVYPQIYVQV | inactive |
| SPAHGLGFDMKMVVFMFGDR | 1.54 ± 0.12 |
| DYDGWESCFHFS | inactive |
| CNLGWRNLDMVKG | inactive |
| YCCSGMWVMRSVHSHEIGYL | 0.966 ± 0.18 |
| SKRARVKWSTQPHFVRYLLE | inactive |
| SSLMRIHLPLVYQ | inactive |
| YFVCVEEVRKYMEPSELGVR | inactive |
| TVPVSSCGGLRNEPHDVRFG | inactive |

| Substance | amyloid nucleation score |
| --- | --- |
| NHVILKNFFLMLQCYNFTTM | inactive |
| SRWVIGHVNTGSGGLESDKR | inactive |
| PLHRSE | inactive |
| HNILFSDLGFYRSYYNADSM | inactive |
| NVWDMEEERWNLKAILTMWA | inactive |
| FGIKFVIQVDCRHIMHNCVN | 0.077 ± 0.87 |
| VGGYI | inactive |
| SSFTKLPFL | inactive |
| SAFNEFFF | inactive |
| GIKNMRSISKFGWVFLIYTV | inactive |
| NVCGNDGNR | inactive |
| DMKLPVCSKMPLFMLVIKFK | inactive |
| DKKVSISRVSR | inactive |
| TISGLNM | inactive |
| DLGMLERC | inactive |
| DVMKVMDRINKRGDNSNYVC | inactive |
| VYMNGIKVKDGLSTYWVPRE | -0.161 ± 0.69 |
| LDVVRRMLKTH | inactive |
| FGSNTGYVIEGRLAVGFEKL | inactive |
| TVGVTYIKVWNVPNILYRGC | 0.769 ± 0.15 |
| IKLVDLPCSLVNTGSTVNRE | inactive |
| FIVLCALLWFCLNWSDLLKF | inactive |
| IMPRPIKSRLNKNFLWAVVC | inactive |

| Substance | amyloid nucleation score |
| --- | --- |
| IYYIDL | inactive |
| SWTCRFCHMSFIGML | 0.251 ± 0.43 |
| WLMRARGYGNVRSPVVFGKL | inactive |
| TCIGPGRFFFMMFYV | inactive |
| FDRNSPTVLFRLRWEYF | inactive |
| PVRIEYQ | inactive |
| CIFLDGVAPFWMGESRWRSG | inactive |
| CFCRMNIGGHCGVRRKLKV | inactive |
| KLSSKY | inactive |
| RSVSDYSSNCRAHCLVDDDT | inactive |
| KNEVIYHWLRRRVNSRRTFR | inactive |
| RCNHSCFGSIMGCVVLCPGE | 1.33 ± 0.13 |
| TSGWEFRRFPNFQLLILSCF | inactive |
| KNKPEKRR | inactive |
| SYQVCSKQTPHFSLSFIMFV | -0.488 ± 0.96 |
| PFHGSLDWSTTESAMT | inactive |
| SLVSYINGKVKNVPCKSCCY | inactive |
| VMRLHRCKELVCDSIYTLRG | inactive |
| NDCLFNKILAVRSFTLLAGK | inactive |
| FLINPFVWFNNYSFTAF | 0.929 ± 0.14 |
| YTVMFLGANYSYVVKSMSRS | inactive |
| LCRNWVR | inactive |
| LNYVVTHLYLVLFHVMVSDG | inactive |

| Substance | amyloid nucleation score |
| --- | --- |
| ERMQHGSLSVRYFKKSSVSG | inactive |
| VSEFRRVYFSAQFSRVGNSC | inactive |
| HKCGQDFYR | inactive |
| KIMNSKNVLRHFSLGQWLHG | inactive |
| MNLVSSIVNYCFGRWGWLVG | inactive |
| LKWCFFCCN | 2.54 ± 0.065 |
| WRGKKSWAWPDQCLI | inactive |
| CCFHLFTYCKGKARYTLWSV | inactive |
| GWFRSQSMPIALEYLTGPGS | inactive |
| HFYRLAYTSISWVYRSLGAE | inactive |
| GITIWLYNPYFL | inactive |
| MIRRKRNAYMR | inactive |
| TYGSVNCVSLMCSVVVLFAM | inactive |
| VWLRGFQLGMDDFLWRVSGC | inactive |
| TFVVSVMHKCAW | 1.18 ± 0.11 |
| KIILEIAMRTSLCRPTSSYL | 1.03 ± 0.099 |
| VCSLVLWSLSSWWTRYGTLR | inactive |
| YHCNGPGSLWSTNLACRSME | inactive |
| ASCQSSIVFRTGSSLATLCD | inactive |
| SGMLIVLRSWLDRDSICEGR | inactive |
| YFGDPSSRMKCFYPYVSVCR | inactive |
| QRELSNMVVISLVQAMLWFR | inactive |
| ICSLCEHSFVRVNGMYWHRE | 2.02 ± 0.092 |

| Substance | amyloid nucleation score |
| --- | --- |
| LNFPQMSYP | inactive |
| HKMDWYIGLFRLMHTVAVLM | inactive |
| DCIRIYQWASLSL | inactive |
| SSFGFKAK | inactive |
| AAFAREDRCSLLVWYSTCWD | inactive |
| CWVIVAYTI | inactive |
| CLRRTLEPW | inactive |
| LLGSSFFIRLFWTSSSFAAK | inactive |
| NLLPRCKLIDSWWSSHRLWV | -0.809 ± 1.1 |
| SSVENFLNVCNHLDES | 0.389 ± 0.25 |
| IKIMFLTAVYVMVGLQIIAT | inactive |
| VKTRTIRVSH | inactive |
| RGVYNEHFCCGFSMWEPING | 2.3 ± 0.067 |
| VWCPRDFFVSFVPCQ | inactive |
| FWKCWAVPDVCFYVWRSGCF | inactive |
| ISSAYCGHIGLAAINRLILT | inactive |
| FFLPSG | inactive |
| FDVVVIYATGVCFLATYYQG | inactive |
| SLSFIECLMELNNLVYYLGS | inactive |
| FVNVKFQTLCNYIWCTSPYE | 2.9 ± 0.06 |
| ILNMAVGALWGLMIWSVMLF | inactive |
| CFPIPVWRGDLNGAPRYAQM | inactive |
| FSPVSQYWMKGFTYTGNRAR | inactive |

| Substance | amyloid nucleation score |
| --- | --- |
| TKCVLNGRRLSLCPLDNSMR | inactive |
| SLSVVMLLKVVVRPSNWWEG | inactive |
| VRRKDSNSCVSSHTASQSGW | inactive |
| FAGEATVDTWTIFMCVIRGW | -0.225 ± 0.53 |
| VCREGLRDSRSAGGFFSYII | inactive |
| CQRYQALSNCPYSATWGSDT | inactive |
| NNIPCGMGPSSSSCNASD | inactive |
| THPVSCRYVSPDMSSAHYFV | inactive |
| LLPLFHNVIIGNCLFGCEPP | 1.62 ± 0.11 |
| ADGWFEIFKGYSAPGAHSVL | -0.48 ± 1.1 |
| QSLGVTRFWGLSLLLQNFLP | inactive |
| VLRSAYAALFLNRFSRFDCR | inactive |
| TWELHV | -0.428 ± 1 |
| DTITRSTWIVCWRTE | inactive |
| DYLPFHLMERDKVALAPWWA | inactive |
| KGTSR | inactive |
| LSVDRL | -0.632 ± 0.9 |
| LYINYLCWMNKYTACLPLHL | inactive |
| LYLQVALRTWLLSRWDLDDI | inactive |
| SVSADGGFCIHGQTRPMAGL | 1.21 ± 0.095 |
| VVCDNYG | 0.607 ± 0.23 |
| QDHDVSYSSCPGYSVMVMEG | -0.399 ± 0.8 |
| FNTPDRAPLLATCAVHANLH | inactive |

| Substance | amyloid nucleation score |
| --- | --- |
| NCTNFALVSNLASTRTIADW | inactive |
| MVTRMCYIACLVFRVWAMCR | inactive |
| VDRYLCNFSGGTLYGSLSQD | inactive |
| EFLQWFDFLQMMAPSLRSAN | inactive |
| ELDGMTYASDHAFCISRNSS | inactive |
| MSYEDTPCH | inactive |
| SFVYVSALVSLHGGFADAKF | 0.885 ± 0.22 |
| YIYSVEEYSRTSLIDDSVGW | inactive |
| TDVYHQNAQYHRVYNLQGRV | inactive |
| DWYMTVW | inactive |
| VRLYYSKPRLKRGDSCVEKY | inactive |
| RGIPDLVIY | inactive |
| RDRLKVLLLIFHSRDDTRTK | inactive |
| LIIVMFPAVCIVFDFNFTVF | inactive |
| CIDQTTLKHTLDNCLIFF | inactive |
| KSYLFWSLI | inactive |
| WVQHISLWSTMWNGPREAPM | inactive |
| PVYGRIKANLKMGLAGGSWV | inactive |
| VGAHSYHVRTPDTES | 0.221 ± 0.47 |
| IHCGACYSACWVRLGAWMTC | inactive |
